According to patent US20220389097A1 (Genentech, published 2022):
Residue numbers refer to the chain shown, from its start. Names may count otherwise. Where no end group is shown, it is not given here.

T1: soluble monomeric human TREM2 (human, UniProt Q9NZC2 19-174, limits assumed)
T1 construct: Not the same as shed sTREM2; also called soluble monomeric TREM2
T1 sequence: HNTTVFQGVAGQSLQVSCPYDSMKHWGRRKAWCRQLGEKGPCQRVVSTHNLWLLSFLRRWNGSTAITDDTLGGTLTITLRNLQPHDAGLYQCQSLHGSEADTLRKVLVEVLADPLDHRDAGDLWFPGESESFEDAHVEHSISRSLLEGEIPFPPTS

T2: hTREM2 stalk antigen (human, UniProt Q9NZC2 129-174)
T2 construct: also called human TREM2 stalk
T2 chain: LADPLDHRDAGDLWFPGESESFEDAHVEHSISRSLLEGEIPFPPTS

T3: cynomolgus TREM2 stalk antigen (cynomolgus monkey, UniProt A0A2K5UY34 159-204, not fully specified)
T3 construct: domain: stalk
T3 chain: T2 chain with F15V

T4: 129-148 (biotinylated (site not given))
T4 construct: member of the group m13
T4 peptide: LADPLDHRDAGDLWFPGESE

T5: 139-158 (biotinylated (site not given))
T5 construct: member of the group m13
T5 peptide: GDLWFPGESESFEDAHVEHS

T6: 159-175 (also: biotinylated (site not given here))
T6 construct: member of the group m13
T6 peptide: ISRSLLEGEIPFPPTSI

T7: 155-169 (also: biotinylated (site not given here))
T7 construct: member of the group m13
T7 peptide: VEHSISRSLLEGEIP

T8: 152-161 (also: biotinylated (site not given here))
T8 construct: member of the group m13
T8 peptide: DAHVEHSISR

T9: 154-164 (also: biotinylated (site not given here))
T9 construct: member of the group m13; also called hTREM2 stalk 154-164
T9 peptide: HVEHSISRSLL

T10: hTREM2 stalk peptide 149-168 (human, biotinylated)
T10 peptide: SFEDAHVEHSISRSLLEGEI

T11: hTREM2 stalk peptide 151-165 (human, also: biotinylated (position not given here))
T11 peptide: EDAHVEHSISRSLLE

T12: hTREM2 stalk peptide residues 129-175 (human, biotinylated)
T12 construct: also called human TREM2 stalk peptide
T12 peptide: T2 chain

T13: hTREM2 stalk peptide 146-169 (human, biotinylated)
T13 peptide: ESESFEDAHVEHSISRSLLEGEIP

T14: hTREM2 stalk peptide 146-161 (human, also: biotinylated (site not given here))
T14 peptide: ESESFEDAHVEHSISR

T15: human TREM2 on cells (human, UniProt Q9NZC2 19-230)
T15 sequence: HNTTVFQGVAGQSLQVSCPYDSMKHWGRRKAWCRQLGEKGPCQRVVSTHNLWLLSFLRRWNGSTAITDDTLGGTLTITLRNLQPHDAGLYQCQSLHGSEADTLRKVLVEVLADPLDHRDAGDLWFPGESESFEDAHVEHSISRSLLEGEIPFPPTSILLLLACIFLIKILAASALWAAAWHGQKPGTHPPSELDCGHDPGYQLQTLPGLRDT

T16: TREM2 peptide residues 148 to 165 (human)
T16 construct: Peptide of the crystal structures
T16 peptide: ESFEDAHVEHSISRSLLE

B1: T93H (antibody, V domains shown)
VH: EVQLVETGGSLVQPGKSLKLTCATSGFPFSNVWMHWVRQSPEKQLEWIAHIKAKSDNYATYYAESVKGRFTISRDDSKTSIYLQMNSLKEDDTAIYYCHGLDYWGQGVMVTVSS
VL: DTVLTQAPLSLSVTPGESASISCRSSKSLLGVRDITSLYWYLQKPGKSPQLLIYRMSNLASGVPDRFSGSGSETDFTLKISEVETEDVGVYYCAQFLRYPYTFGPGTKLELK
B2: 3.18E5 (rat anti-human TREM2 antibody) (antibody, IgG2a, V domains shown)
VH: B1 VH with S80T, D91A, H99T
VL: B1 VL with L11V, S26N, V32I
notes: Whole IgG
B3: T93E (antibody, V domains shown)
VH: B1 VH with H99E
VL: B1 VL
B4: 3.10C2 (rat anti-human TREM2 antibody) (antibody, V domains shown)
VH: B1 VH with H99T
VL: B1 VL
notes: Whole IgG with rat variable regions; also called clone 3.10C2
B5: 3.50G1 (rat anti-human TREM2 antibody) (antibody, IgG2a, V domains shown)
VH: B1 VH with E90D, H99T
VL: B1 VL with L11V, S26N, V32I, Y41F, K112Q
notes: Whole IgG
B6: Para.09 IgG with the 3.27H7 light chain (antibody, V domains shown)
VH: EVQLVETGGSLVQPGKSLRLTCATSGFPFSNVWLHWVRQSPEKHPEWVAHIKAKSDNYATYYAESVKGRFTISRDDSKSSVFLQMNSLKEEDTAIYYCTDILEYWGQGTLVTVSS
VL: DVVLTQAPLSVSVTPGESASISCRSSRSLLTSKGITSLYWYLQKPGMSPHLLIYRMSNLASGIPDRFSGSGSETDFTLKISEVEPEDVGVYYCAQFLVYPYTFGAGTKLELK
notes: also called rat Para.09; Para.09-L27H7
B7: 3.27H7 (rat anti-human TREM2 antibody) (antibody, V domains shown)
VH: EVQLVETGGSLVQPGGSLKLTCATSGFPFSNVWLHWIRRSPEKQLEWVAQIKARSDNYATYYAESVKGRFIVSRDDSKTTIYLQMNNLKEEDTAIYYCTGLDYWGQGVMVTVSS
VL: B6 VL
notes: Whole IgG
B8: hPara.09.v2 Q100P (antibody, V domains shown)
VH: EVQLVESGGGLVQPGGSLKLSCATSGFPFSNVWLHWVRQASGKGPEWVAHIKAKSDNYATYYAESVKGRFTISRDDSKNTVYLQMNSLKTEDTAVYYCTDILEYWGQGTLVTVSS
VL: DVVMTQSPLSLPVTPGEPASISCRSSRSLLTSKGITSLYWYLQKPGQSPQLLIYRMSNLASGIPDRFSGSGSGTDFTLKISRVEAEDVGVYYCAQFLVYPYTFGPGTKVEIK
notes: Human IgG1 N297G in the cell assays; also called huPara.09.v2 Q100P; hPara.09 Q100P
B9: h3.10C2.v1 Q100P (antibody, V domains shown)
VH: EVQLVESGGGLVQPGGSLKLSCATSGFPFSNVWMHWVRQASGKGLEWIAHIKAKSDNYATYYAESVKGRFTISRDDSKTTIYLQMNSLKTEDTAVYYCTGLDYWGQGTTVTVSS
VL: B8 VL
notes: also called hu3.10C2.v1 Q100P

Experiments:
[1] = target: T1, soluble monomeric human TREM2; assay: SPR (Biacore 8K) at 37 C, mutant IgG captured on anti-human Fab chip, soluble monomeric TREM2 as analyte, off-rate screen
hTREM2 stalk antigen = target: T2, hTREM2 stalk antigen; assay: SPR (Biacore T200), 37 C; TREM2 stalk antigen on anti-human IgG1 Fc chip, antibody in solution
Procedure: (§1) Forty-six rat anti-human antibodies were tested for binding affinity to the hTREM2 and cynomolgus TREM2 stalk. Antibody binding affinities for hTREM2 stalk and cynomolgus TREM2 stalk were measured by surface plasmon resonance (SPR) using a Biacore™ T200 apparatus. TREM2 stalk antigens (human or cynomolgus) were immobilized on anti-human IgG1 Fc Biacore™ chips and anti-TREM2 antibody clones were bound to immobilized TREM2 at 37° C. Binding affinities, KD (nM) were measured and recorded.
(§2) Several antibodies were selected for binding measurements against cynomolgus TREM2 stalk. […] These four antibodies are referred to collectively below as the “3.10C2 group” of antibodies.

[2] = target: T3, cynomolgus TREM2 stalk antigen; assay: as above
Procedure: as §1, §2

129-148 = target: T4, 129-148; assay: ELISA: biotinylated peptide captured on streptavidin plate, antibody detected with anti-mouse IgG-HRP
Excerpt: (§3) The antibody epitopes were mapped to the stalk region of human TREM2 using enzyme-linked immunosorbent assay (ELISA). Overlapping biotinylated peptides were captured in ELISA plates coated with streptavidin. The binding of antibodies to peptides was detected with an anti-mouse IgG conjugated to horseradish peroxidase.

139-158 = target: T5, 139-158; assay: as above
Excerpt: as §3

159-175 [3] = target: T6, 159-175; assay: as above
Excerpt: as §3

155-169 = target: T7, 155-169; assay: as above
Excerpt: as §3

152-161 = target: T8, 152-161; assay: as above
Excerpt: as §3

154-164 = target: T9, 154-164; assay: as above
Excerpt: as §3

[4] = target: T10, hTREM2 stalk peptide 149-168; assay: as above
Excerpt: as §3

[5] = target: T11, hTREM2 stalk peptide 151-165; assay: as above
Excerpt: as §3

[6] = target: T12, hTREM2 stalk peptide residues 129-175; assay: as above
Excerpt: as §3

[7] = target: T13, hTREM2 stalk peptide 146-169; assay: as above
Excerpt: as §3

[8] = target: T14, hTREM2 stalk peptide 146-161; assay: as above
Excerpt: as §3

159-175 [9] = target: T6, 159-175; assay: peptide ELISA with IgG, grey-scale heat map of OD650nm
[10] = target: T1, soluble monomeric human TREM2; assay: SPR (Biacore T200), 37 C; IgG on anti-CH1 chip, soluble monomeric TREM2
human TREM2 on cells [11] = target: T15, human TREM2 on cells; assay: cell-based or functional assay
human TREM2 on cells [12] = target: T15, human TREM2 on cells; assay: cell-based or functional assay; remark: listed apart in the source
[13] = target: T16, TREM2 peptide residues 148 to 165; assay: crystal structure of the complex

| Binder | Kd (hTREM2 stalk antigen) [nM] | Kd [2] [nM] | A620 absorbance (ELISA) (129-148) [A620] | A620 absorbance (ELISA) (139-158) [A620] | A620 absorbance (ELISA) (159-175 [3]) [A620] | A620 absorbance (ELISA) (155-169) [A620] | A620 absorbance (ELISA) (152-161) [A620] | A620 absorbance (ELISA) (154-164) [A620] | A620 absorbance (ELISA) [4] [A620] | A620 absorbance (ELISA) [5] [A620] | A620 absorbance (ELISA) [6] [A620] | A620 absorbance (ELISA) [7] [A620] | A620 absorbance (ELISA) [8] [A620] | other results |
| --- | --- | --- | --- | --- | --- | --- | --- | --- | --- | --- | --- | --- | --- | --- |
| B1 | – | – | – | – | – | – | – | – | – | – | – | – | – | fold improvement (lower dissociation rate kd) relative to wild-type 3.10C2 [1]: 1.4 fold |
| B2 | 0.26 | 0.3 | 0.28 | 0.51 | 0.07 | 0.14 | 0.15 | 0.4 | 1.46 | 2.42 | 1.65 | 1.48 | 2.89 | – |
| B3 | – | – | – | – | – | – | – | – | – | – | – | – | – | fold improvement (lower dissociation rate kd) relative to wild-type 3.10C2 [1]: 2 fold |
| B4 | 0.24 | 0.25 | 0.19 | 0.37 | 0.07 | 0.13 | 0.12 | 0.39 | 2.16 | 2.52 | 1.91 | 1.65 | 2.95 | – |
| B5 | 0.61 | 0.57 | 0.19 | 0.43 | 0.08 | 0.13 | 0.14 | 0.26 | 1.28 | 2.32 | 2.13 | 1.88 | 2.52 | – |
| B6 | – | – | – | – | – | – | – | – | – | – | – | – | – | binding result (159-175 [9]): no binding; Kd [10]: 0.011 nM; koff [10]: 2.1e-05 s⁻¹; kon [10]: 2e+06 M⁻¹ s⁻¹ |
| B7 | 0.22 | 0.26 | – | – | – | – | – | – | – | – | – | – | – | – |
| B8 | – | – | – | – | – | – | – | – | – | – | – | – | – | EC50, average X04 plaque intensity, human iPSC-derived microglia plaque assay (FIG. 24C) (human TREM2 on cells [11]): 500 nM; EC50, survival of iPSC-derived microglia (FIG. 23E) (human TREM2 on cells [11]): 0.61 nM; EC50, total Abeta plaque intensity, human iPSC-derived microglia plaque assay (FIG. 24B) (human TREM2 on cells [11]): 120 nM; EC50, Jurkat NFAT luciferase reporter cells (human TREM2 on cells [12]): 0.0178 µg/mL; IC50, TREM2 shedding inhibition in Jurkat-NFAT reporter cells (sTREM2 ELISA) (human TREM2 on cells [12]): 0.123 µg/mL; binding result [13]: binds |
| B9 | – | – | – | – | – | – | – | – | – | – | – | – | – | binding result [13]: binds |
